11 molecules from patent US20040077572, “Transposon system and methods of use” (Regents of the University of Minnesota, published 2004) can be followed below.

Positions count from the first letter of the chain named.

Conditions in all cases: tags: C-terminal His6
In data set [1] the target is T1, N123 (DNA-binding domain of Sleeping Beauty transposase) (synthetic (reconstructed salmonid)).
T1 chain: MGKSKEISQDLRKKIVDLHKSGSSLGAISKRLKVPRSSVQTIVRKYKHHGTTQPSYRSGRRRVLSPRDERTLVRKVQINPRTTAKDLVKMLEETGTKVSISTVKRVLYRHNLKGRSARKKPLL
In words: EMSA; binding not affected. The text has this: (§1) DNA fragments with one to three DRs were obtained by digestion of the appropriate transposon with HindIII and SacI. To determine the core sequence for SB binding, DNA fragments with mutations in the outer or inner DR were made by PCR followed by enzyme digestion. DNA fragments were end-labeled with [α³²P]-dCTP. Nucleoprotein complexes were formed in a buffer as described by Ivics et al., Cell, 1997;91:501-510. Reactions contained 100 picogram (pg) DNA probes, 1 microgram (μg) poly[dI:dC], and 1 microliter (μl) N123 in a total volume of 20 μl. After a 60 minutes incubation at 30° C., […] of loading dye containing 50% glycerol and bromophenol blue were added and the samples were loaded onto 4%-6% polyacrylamide gels, which were run for 2-3 hours at 120 volts. 4% gels were used for EMSA assays with triple-DR probes while 6% gels were used with double-DR probes. Competitor concentrations were as described in Ivics et al., Cell, 1997;91:501-510. Dried gels were exposed to the phosphor for 6-9 hours and imaged on a Storm 840 Imager (Molecular Dynamics).
(Mobility shift assays separate free from complexed probe on a gel.)

In data set [2] the target is T1, N123 (DNA-binding domain of Sleeping …). Kind of data set: EMSA; binding abolished.
From the text: as §1

For data set [3] the target is unchanged. In words: competition; weaker competitor than Li.
From the text: as §1
(§2) The initial step of SB transposition involves the specific binding of transposase to both ITRs of SB transposon. Two DRs in each ITR are required because deletion of one or the both severely reduces transposition (Izsvák et al., J. Mol. Biol., 2000;302:93-102). […]

Data set [4] shares this target. In words: EMSA; still binds.
From the text: as §1

The target is the same in data set [5]. In words: competition; binds more tightly than Lo.
From the text: as §1, §2

B1: Lo(S1,3) (dsDNA)
DNA 1: TAAAATTGAAGTCGGAAGTTTACATACACTTAAG
DNA 2: CTTAAGTGTATGTAAACTTCCGACTTCAATTTTA
Consider B1, for which the binding result in data set [1] is recorded as “binds”.

B2: Lo(S7-9) (dsDNA)
DNA 1: TACAGTTGCCCTCGGAAGTTTACATACACTTAAG
DNA 2: CTTAAGTGTATGTAAACTTCCGAGGGCAACTGTA
Take B2: the binding result in data set [1] is “binds”.

B3: Lo(S10-12) (dsDNA)
DNA 1: TACAGTTGAAGAACGAAGTTTACATACACTTAAG
DNA 2: CTTAAGTGTATGTAAACTTCGTTCTTCAACTGTA
On to B3, for which the binding result in data set [2] is reported as “no binding”.

B4: Lo(S3) (dsDNA)
DNA 1: B1 DNA 1 with A3C
DNA 2: B1 DNA 2 with T32G
As to B4, in data set [1], the binding result is reported as “binds”.

B5: Lo (dsDNA)
DNA 1: B1 DNA 1 with A3C, A5G
DNA 2: B1 DNA 2 with T30C, T32G
Turning to B5, the binding result in data set [3] was “binds”.

B6: Li/Lo(H) (dsDNA)
DNA 1: TCCAGTGGGTCAGAAGTTTACATACACTTAAG
DNA 2: CTTAAGTGTATGTAAACTTCTGACCCACTGGA
modifications: [none]
As to B6, the binding result in data set [4] was “binds”.

B7: Li (dsDNA)
DNA 1: B6 DNA 1 with T29A, A31G, G32T
DNA 2: B6 DNA 2 with C1A, T2C, A4T
For the molecule B7, in data set [5], the binding result is given as “binds”.

B8: Lo(S4-6) (dsDNA)
DNA 1: TACAGCCCAAGTCGGAAGTTTACATACACTTAAG
DNA 2: CTTAAGTGTATGTAAACTTCCGACTTGGGCTGTA
For B8, the binding result in data set [1] is “binds”.

B9: Lo(delta8-11) (dsDNA)
DNA 1: TACAGTTGAGGAAGTTTACATACACTTAAG
DNA 2: CTTAAGTGTATGTAAACTTCCTCAACTGTA
Take B9: the binding result in data set [2] was “no binding”.

B10: Lo(S27-29) (dsDNA)
DNA 1: TACAGTTGAAGTCGGAAGTTTACATACATGGAAG
DNA 2: CTTCCATGTATGTAAACTTCCGACTTCAACTGTA
On to B10, for which the binding result in data set [2] was “no binding”.

B11: Lo(S28-30) (dsDNA)
DNA 1: B10 DNA 1 with T29C, A32G
DNA 2: B10 DNA 2 with T3C, A6G
Turning to B11, in data set [1], the binding result is given as “binds”.
